Test results: the supplement of paper PMC7125110
± gives the standard error. Variants at the floor of the assay were thinned out.

B1: glmS ribozyme (parent)
chain: AUAAAAGCGCCAGAACUACAGAAAUGUAGUUGACGAGGAGGAGGUUUAUCGAAUUUUCGGCGGAUGCCUCCAAA

Assays:
Conditions in all cases: with glucosamine-6-phosphate
glucosamine-6-phosphate [1] = variants of: B1; assay: self-cleavage kobs at 40 uM GlcN6P; higher = faster cleavage; RNA array
In short: (§1)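 A hybridised Cy3 probe tracked barcoded ribozyme variants, transcribed in situ by E. coli RNA polymerase on sequenced MiSeq chips, at 37 °C. The variants received 40 μM to 10 mM glucosamine-6-phosphate in HEPES/KCl/Mg(OAc)2 buffer. kobs came from decay fits and kcat and KM from weighted Michaelis–Menten fits.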

glucosamine-6-phosphate [2] = variants of: B1; assay: self-cleavage kobs at 160 uM GlcN6P; higher = faster cleavage; RNA array
In short: as §1

glucosamine-6-phosphate [3] = variants of: B1; assay: self-cleavage kobs at 640 uM GlcN6P; higher = faster cleavage; RNA array
In short: as §1

glucosamine-6-phosphate [4] = variants of: B1; assay: self-cleavage kobs at 2500 uM GlcN6P; higher = faster cleavage; RNA array
In short: as §1

glucosamine-6-phosphate [5] = variants of: B1; assay: self-cleavage kobs at 10000 uM GlcN6P; higher = faster cleavage; RNA array
In short: as §1

| Variant | self-cleavage kobs at 40 uM GlcN6P (glucosamine-6-phosphate [1]) [s⁻¹] | self-cleavage kobs at 160 uM GlcN6P (glucosamine-6-phosphate [2]) [s⁻¹] | self-cleavage kobs at 640 uM GlcN6P (glucosamine-6-phosphate [3]) [s⁻¹] | self-cleavage kobs at 2500 uM GlcN6P (glucosamine-6-phosphate [4]) [s⁻¹] | self-cleavage kobs at 10000 uM GlcN6P (glucosamine-6-phosphate [5]) [s⁻¹] |
| --- | --- | --- | --- | --- | --- |
| AUAAAAGCGCCAGAACUACAGAAAUGUAGUUGACGAGGAGGAGGUUUAUCGAAUUUUUGGCGGAAGCCUCCAAA [C58U U65A] | < 1e-05 | < 1e-05 | – | – | – |
| AUAAAAGCGCCAGAACUACAGAAAUGUAGUUGACGAGGAGGAGGUUUAUCGAAUUUUGGCCGGAUGCCUCCAAA [C58G G60C] | < 1e-05 | < 1e-05 | < 1e-05 | < 1e-05 | < 1e-05 |
| AUAAAAGCGCCAGAACUACAGAAAUGUAGUUGACGAGGAGGAGGUUUAUCGAAUUUUCGACGGAUGUCUCCAAA [G60A C67U] | < 1e-05 | < 1e-05 | – | – | – |
| AUAAAAGCGCCAGAACUACAGAAAUGUAGUUGACGAGGAGGAGGUUUAUCGAAUUUUAGGCCGAUGCCUCCAAA [C58A G62C] | < 1e-05 | < 1e-05 | < 1e-05 | < 1e-05 | – |
| AUAAAAGCGCCAGAACUACAGAAAUGUAGUUGACGAGGAGGAGGUUUAUCGAAUUUUGGGCGGGUGCAUCCAAA [C58G A64G C68A] | 4.76e-05 ± 1.8e-05 | – | 0.00061 ± 0.00029 | 5.81e-05 ± 2.1e-05 | – |
| AUAAAAGCGCCAGAACUACAGAAAUGUAGUUGACGAGGAGGAGGUUUAUCGAAUUUUAGACGGAUGCCUCCAAA [C58A G60A] | < 1e-05 | < 1e-05 | – | – | < 1e-05 |
| AUAAAAGCGCCAGAACUACAGAAAUGUAGUUGACGAGGAGGAGGUUUAUCGAAUUUUCAGCGGAUGCUGCCAAA [G59A C68U U69G] | < 1e-05 | – | – | – | – |
| AUAAAAGCGCCAGAACUACAGAAAUGUAGUUGACGAGGAGGAGGUUUAUCGAAUUUUGGGCGGUUGCCUCCAAA [C58G A64U] | < 1e-05 | – | < 1e-05 | < 1e-05 | < 1e-05 |
| AUAAAAGCGCCAGAACUACAGAAAUGUAGUUGACGAGGAGGAGGUUUAUCGAAUUUUGGGCGGCUGCCUCCAAA [C58G A64C] | < 1e-05 | < 1e-05 | – | – | – |
| AUAAAAGCGCCAGAACUACAGAAAUGUAGUUGACGAGGAGGAGGUUUAUCGAAUUUUGGGUGGAUGCCUCCAAA [C58G C61U] | < 1e-05 | – | – | – | – |
| AUAAAAGCGCCAGAACUACAGAAAUGUAGUUGACGAGGAGGAGGUUUAUCGAAUUUGCGGCGGAGGCCUCCAAA [U57G U65G] | < 1e-05 | < 1e-05 | – | – | – |
| AUAAAAGCGCCAGAACUACAGAAAUGUAGUUGACGAGGAGGAGGUUUAUCGAAUUUGCGGCGGAAGCCUCCAAA [U57G U65A] | < 1e-05 | – | < 1e-05 | – | – |
| AUAAAAGCGCCAGAACUACAGAAAUGUAGUUGACGAGGAGGAGGUUUAUCGAAUUUUUGUCGGAUGCCUCCAAA [C58U G60U] | < 1e-05 | – | < 1e-05 | < 1e-05 | < 1e-05 |
| AUAAAAGCGCCAGAACUACAGAAAUGUAGUUGACGAGGAGGAGGUUUAUCGAAUUUUCUGCGUAUGACUCCAAA [G59U G63U C67A] | < 1e-05 | – | – | – | < 1e-05 |
